Assay [1] has as its target lysozyme variant 2-3-7 (human).
In assay [2] the target is wild type human lysozyme (human) (UniProt P61626).
Assay [3] deals with lysozyme variant 2-3-7 (human). This is another data set of the same source.

mucin: the IC50 - Mucin (µg/mL): concentration of polyanion that inhibits lytic activity of the enzyme on Micrococcus luteus by 50% in assay [1] was found to be 73 µg/mL; in assay [2] it was 11 µg/mL. In assay [3], the fold increase in IC50 for mucin against WT-LYZ turned out to be 6.91 fold.

Source of the values: patent US20170128546A1.
